Data reported in paper PMC3039672.

Target: partial heads (10am13am phage T4 heads that ejected most of their packaged DNA, keeping a ~8-kb piece) (bacteriophage T4) (UniProt P13334)
UniProt P13334, sequence (P13334 whole entry, looked up): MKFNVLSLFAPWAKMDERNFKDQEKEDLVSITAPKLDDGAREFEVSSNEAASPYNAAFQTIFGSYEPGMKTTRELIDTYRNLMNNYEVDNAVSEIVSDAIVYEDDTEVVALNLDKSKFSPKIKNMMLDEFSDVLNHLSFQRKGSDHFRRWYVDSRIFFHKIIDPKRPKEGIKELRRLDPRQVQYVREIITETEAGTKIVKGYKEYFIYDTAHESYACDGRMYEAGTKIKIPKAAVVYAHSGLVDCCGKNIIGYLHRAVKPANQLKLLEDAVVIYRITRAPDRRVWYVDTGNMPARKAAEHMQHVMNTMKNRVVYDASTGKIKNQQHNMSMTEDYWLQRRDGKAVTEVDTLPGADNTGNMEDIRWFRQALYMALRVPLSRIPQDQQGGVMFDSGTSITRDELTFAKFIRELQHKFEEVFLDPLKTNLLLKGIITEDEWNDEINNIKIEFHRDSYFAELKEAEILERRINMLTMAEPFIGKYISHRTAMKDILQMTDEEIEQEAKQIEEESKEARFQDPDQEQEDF

Substance “full-length gp17 (large terminase protein, packaging motor) (from UniProt P17312 1-610) (enzyme)” has a single molecule optical tweezers: packaging rate of 10-kb DNA against 5 pN by head-gp17 complexes of 1100 bp/s.
